# Measurements reported in patent US20130142792A1.
# Experiments:
# [1] = target: RAGE ligand (not named in the glycoform binding study); assay: binding assay of RP-HPLC glycoform fractions; method and ligand not stated; data not shown
# [2] = target: RAGE ligand (not named in the glycoform binding study); assay: binding assay of RP-HPLC glycoform fractions; reference is the 3-glycan fraction; method and ligand not stated; data not shown
# [3] = target: RAGE ligand (not named in the glycoform binding study); assay: binding assay of RP-HPLC glycoform fractions; method and ligand not stated; reference sample; data not shown
Substance,relative binding (percent of control RAGE fusion protein) [1],fold increase in binding against the 3 glycan fraction [2],relative binding [3]
0-glycan RAGE fusion protein (RP-HPLC fraction of wild-type RAGE fusion protein) (Fc fusion),529%,10 fold,
control RAGE fusion protein (mixture of 67% 3-glycan and 22% 2 glycan RAGE fusion protein) (Fc fusion),,,100%
